Laboratory results published in patent US20180237496A1 (DENALI THERAPEUTICS, published 2018).

T1: His-tagged permuted human TfR apical domain (TfR-AD) (human)
T1 construct: C-terminal His6; used for co-crystals (Expi293 or CHO); also called permuted TfR apical domain
T1 chain: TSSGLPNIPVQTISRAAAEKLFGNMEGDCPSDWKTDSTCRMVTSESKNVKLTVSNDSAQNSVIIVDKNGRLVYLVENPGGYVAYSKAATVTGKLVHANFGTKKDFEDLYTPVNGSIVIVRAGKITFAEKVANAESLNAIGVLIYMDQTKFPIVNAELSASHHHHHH

T2: cynomolgus (cyno) transferrin receptor (TfR) ectodomain (ECD) (cynomolgus (cyno), biotinylated where captured on streptavidin ; biotinylated (sulfo-NHS-LC-biotin on amines or BirA on the Avi-tag) where captured on streptavidin)
T2 construct: made in HEK293; also called cyno TfR; cynoTfR; not shown: C-terminal cleavable His- and Avi-tags with their cleavage site
T2 chain: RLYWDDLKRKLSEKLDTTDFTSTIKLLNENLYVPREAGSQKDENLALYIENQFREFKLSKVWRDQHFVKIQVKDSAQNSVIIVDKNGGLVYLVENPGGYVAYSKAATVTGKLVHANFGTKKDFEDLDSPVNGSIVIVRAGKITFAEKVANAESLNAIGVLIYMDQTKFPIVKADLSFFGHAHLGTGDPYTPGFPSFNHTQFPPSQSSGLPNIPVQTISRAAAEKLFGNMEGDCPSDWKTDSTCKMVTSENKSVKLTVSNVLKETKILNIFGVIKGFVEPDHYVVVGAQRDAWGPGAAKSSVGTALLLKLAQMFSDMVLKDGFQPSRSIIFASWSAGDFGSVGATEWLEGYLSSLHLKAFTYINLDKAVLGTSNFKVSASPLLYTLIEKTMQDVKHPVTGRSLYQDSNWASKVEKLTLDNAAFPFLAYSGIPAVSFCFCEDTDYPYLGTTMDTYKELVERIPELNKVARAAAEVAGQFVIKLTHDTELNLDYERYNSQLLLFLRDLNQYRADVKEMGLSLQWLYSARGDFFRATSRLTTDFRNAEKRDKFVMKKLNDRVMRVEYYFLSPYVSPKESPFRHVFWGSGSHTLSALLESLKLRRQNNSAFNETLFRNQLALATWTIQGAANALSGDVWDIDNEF


Legend:
[1] = target: T1, His-tagged permuted human TfR apical …; test: size-exclusion chromatography of the mixed proteins
[2] = target: T3, human transferrin receptor (TfR) ectodomain (ECD) (human, biotinylated where captured on streptavidin ; Biotinylated (NHS-biotin on amines, or BirA on the Avi-tag) where captured on streptavidin. It forms a homodimer, and the unique chain is given once.); test: ELISA, clone as Fc-Fab fusion, human TfR coated
T3 construct: made in HEK293; also called human TfR; huTfR; not shown: The C-terminal cleavable His- and Avi-tags

[3] = target: T2, cynomolgus (cyno) transferrin receptor …; test: phage ELISA, clone on phage, target coated on plate
Description: (§1) FIGS. 1A-1D show phage ELISA results for four CH2A2 clones.
(§2) ELISA plates were coated with target, typically at […] overnight, then blocked with 1% BSA before addition of phage or periplasmic extracts. […] The plates were washed again, and then developed with TMB reagent and quenched with 2N sulfuric acid. […] Absorbance signal for tested clones was compared to negative control (phage or paraplasmic extract lacking Fc).

[4] = target: T3, human transferrin receptor (TfR) …; test: as above
Description: as §1, §2
Target sequence in this assay (chain, as listed by the source limits assumed, form in doubt): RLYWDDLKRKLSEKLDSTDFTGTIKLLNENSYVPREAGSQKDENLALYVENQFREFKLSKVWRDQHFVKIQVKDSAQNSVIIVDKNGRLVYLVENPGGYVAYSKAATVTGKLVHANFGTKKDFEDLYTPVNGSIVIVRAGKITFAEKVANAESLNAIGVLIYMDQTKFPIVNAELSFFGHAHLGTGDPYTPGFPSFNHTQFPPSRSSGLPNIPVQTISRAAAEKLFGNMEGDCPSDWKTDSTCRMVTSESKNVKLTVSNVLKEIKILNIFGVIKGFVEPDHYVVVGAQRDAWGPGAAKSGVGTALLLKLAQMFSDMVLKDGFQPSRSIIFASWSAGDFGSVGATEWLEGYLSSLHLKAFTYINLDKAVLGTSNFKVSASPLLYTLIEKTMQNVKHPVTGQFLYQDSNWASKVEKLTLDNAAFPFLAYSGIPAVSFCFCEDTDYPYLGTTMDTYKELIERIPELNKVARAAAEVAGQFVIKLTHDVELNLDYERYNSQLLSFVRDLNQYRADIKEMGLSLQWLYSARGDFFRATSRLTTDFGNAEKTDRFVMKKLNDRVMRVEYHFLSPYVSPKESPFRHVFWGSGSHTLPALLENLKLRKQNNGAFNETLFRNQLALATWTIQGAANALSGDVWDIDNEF

Binder | binding result [1] | EC50 (read off the curve) [2] [nM] | EC50 (read off the curve) [3] | EC50 (read off the curve) [4]
CH3C.18 Fc (expressed engineered human Fc) (designed binder, also called CH3C.18 Fc polypeptide) DKTHTCPPCPAPEAAGGPSVFLFPPKPKDTLYITREPEVTCVVVDVSHEDPEVKFNWYVDGVEVHNAKTKPREEQYNSTYRVVSVLTVLHQDWLNGKEYKCKVSNKALGAPIEKTISKAKGQPREPQVYTLPPSRDELTKNQVSLTCLVKGFYPSDIAVEWESLGHVWAVYKTTPPVLDSDGSFFLYSKLTVPKSTWQQGWVFSCSVMHEALHNHYTQKSLSLSPGK | binds |  |  | 
CH3C.35 Fc (expressed engineered human Fc) (designed binder) DKTHTCPPCPAPEAAGGPSVFLFPPKPKDTLYITREPEVTCVVVDVSHEDPEVKFNWYVDGVEVHNAKTKPREEQYNSTYRVVSVLTVLHQDWLNGKEYKCKVSNKALGAPIEKTISKAKGQPREPQVYTLPPSRDELTKNQVSLTCLVKGFYPSDIAVEWESYGTEWSSYKTTPPVLDSDGSFFLYSKLTVTKSEWQQGFVFSCSVMHEALHNHYTQKSLSLSPGK | binds |  |  | 
Clone CH2C.6 (designed binder, modified human IgG1 Fc, phage display) PCPAPELLGGPSVFLFPPKPKDTLMISRTPEVTCVVVDPKMPPWEVKFNWYVDGVEVHNAKTKPREEEYYTYYRVVSVLTVLHQDWLNGKEYKCKVSNKALPAPIEKTISKAKGQPREPQVYTLPPSRDELTKNQVSLTCLVKGFYPSDIAVEWESNGQPENNYKTTPPVLDSDGSFFLYSKLTVDKSRWQQGNVFSCSVMHEALHNHYTQKSLSLSPGK |  | ~2 |  | 
Clone CH2A2.4 (designed binder, modified human IgG1 Fc, phage display) PCPAPELLGGPSVFLFPPKPKDTLMISRTPEVTCVVVDVSHEDPEVSFEWYVDGVPVRWEWQWPREEQYNSTYRVVSVLTVLHQDWLNGKEYKCKVSNKALPAPIEKTISKAKGQPREPQVYTLPPSRDELTKNQVSLTCLVKGFYPSDIAVEWESNGQPENNYKTTPPVLDSDGSFFLYSKLTVDKSRWQQGNVFSCSVMHEALHNHYTQKSLSLSPGK |  |  | ~0.02 OD268 (phage solution) | ~0.02 OD268 (phage solution)
Clone CH2A2.1 (designed binder, modified human IgG1 Fc, phage display) PCPAPELLGGPSVFLFPPKPKDTLMISRTPEVTCVVVDVSHEDPEVEFIWYVDGVDVRYEWQLPREEQYNSTYRVVSVLTVLHQDWLNGKEYKCKVSNKALPAPIEKTISKAKGQPREPQVYTLPPSRDELTKNQVSLTCLVKGFYPSDIAVEWESNGQPENNYKTTPPVLDSDGSFFLYSKLTVDKSRWQQGNVFSCSVMHEALHNHYTQKSLSLSPGK |  |  | ~0.04 OD268 (phage solution) | ~0.03 OD268 (phage solution)
Clone CH2A2.5 (designed binder, modified human IgG1 Fc, phage display) PCPAPELLGGPSVFLFPPKPKDTLMISRTPEVTCVVVDVSHEDPEVAFTWYVDGVPVRWEWQNPREEQYNSTYRVVSVLTVLHQDWLNGKEYKCKVSNKALPAPIEKTISKAKGQPREPQVYTLPPSRDELTKNQVSLTCLVKGFYPSDIAVEWESNGQPENNYKTTPPVLDSDGSFFLYSKLTVDKSRWQQGNVFSCSVMHEALHNHYTQKSLSLSPGK |  |  | ~0.01 OD268 (phage solution) | ~0.008 OD268 (phage solution)
Clone CH2A2.16 (designed binder, modified human IgG1 Fc, phage display) PCPAPELLGGPSVFLFPPKPKDTLMISRTPEVTCVVVDVSHEDPEVWFEWYVDGVFVGVAYDVPREEQYNSTYRVVSVLTVLHQDWLNGKEYKCKVSNKALPAPIEKTISKAKGQPREPQVYTLPPSRDELTKNQVSLTCLVKGFYPSDIAVEWESNGQPENNYKTTPPVLDSDGSFFLYSKLTVDKSRWQQGNVFSCSVMHEALHNHYTQKSLSLSPGK |  |  |  | ~0.04 OD268 (phage solution)
